The results in this text go back to US20050281828A1 (published 2005).

The target of assay [1] is T1, recombinant human L-SIGN (L-SIGNFc fusion protein) (human, UniProt Q9H2X3 78-399).
T1 construct: also called DC-SIGNR; human DC-SIGNR; not shown: Fc part of the fusion
T1 sequence (looked up): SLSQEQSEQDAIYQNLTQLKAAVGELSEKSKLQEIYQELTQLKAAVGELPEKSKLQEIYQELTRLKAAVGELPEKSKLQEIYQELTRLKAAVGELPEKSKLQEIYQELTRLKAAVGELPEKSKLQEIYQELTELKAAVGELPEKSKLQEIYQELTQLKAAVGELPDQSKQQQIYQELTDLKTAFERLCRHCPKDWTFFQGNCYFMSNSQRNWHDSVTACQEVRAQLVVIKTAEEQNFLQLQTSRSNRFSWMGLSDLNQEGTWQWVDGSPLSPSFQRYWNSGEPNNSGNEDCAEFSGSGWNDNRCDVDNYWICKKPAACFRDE
Description: ELISA, recombinant L-SIGN. In general terms: An ELISA detects its analyte on a solid surface through an enzyme-linked reagent.

The target in assay [2] is T2, recombinant human DC-SIGN (human, UniProt Q9NNX6 62-404).
T2 construct: Added to plates coated with anti-human Fc, so probably an Fc fusion
T2 sequence (looked up): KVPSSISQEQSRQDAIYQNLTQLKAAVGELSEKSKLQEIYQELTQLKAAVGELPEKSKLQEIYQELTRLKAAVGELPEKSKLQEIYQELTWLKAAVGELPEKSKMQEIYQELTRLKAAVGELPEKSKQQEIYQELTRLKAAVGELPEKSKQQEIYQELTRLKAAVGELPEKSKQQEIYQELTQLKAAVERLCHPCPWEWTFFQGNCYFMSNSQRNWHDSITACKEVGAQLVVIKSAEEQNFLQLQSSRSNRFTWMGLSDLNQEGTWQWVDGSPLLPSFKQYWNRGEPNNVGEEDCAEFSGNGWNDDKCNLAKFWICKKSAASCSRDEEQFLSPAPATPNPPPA
Kind of assay: ELISA, recombinant DC-SIGN.

For assay [3], the target named is T3, L-SIGN receptor on cells (K562/L-SIGN) (human, UniProt Q9H2X3 1-399).
T3 construct: whole, on cells; also called L-SIGN on LSECs
T3 sequence (looked up): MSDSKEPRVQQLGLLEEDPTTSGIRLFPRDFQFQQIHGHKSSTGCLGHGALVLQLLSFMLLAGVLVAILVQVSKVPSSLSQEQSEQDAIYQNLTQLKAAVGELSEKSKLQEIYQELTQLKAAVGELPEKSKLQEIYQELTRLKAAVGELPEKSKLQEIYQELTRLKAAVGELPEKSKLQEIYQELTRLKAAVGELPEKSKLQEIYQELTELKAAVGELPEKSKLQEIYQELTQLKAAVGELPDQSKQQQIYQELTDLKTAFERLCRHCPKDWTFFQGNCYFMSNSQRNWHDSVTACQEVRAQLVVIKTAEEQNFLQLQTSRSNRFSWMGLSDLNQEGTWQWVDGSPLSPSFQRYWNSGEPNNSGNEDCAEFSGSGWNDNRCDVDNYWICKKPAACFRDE
Description: flow cytometry, K562/L-SIGN cells.

Assay [4] concerns the target T4, DC-SIGN receptor on cells (K562/DC-SIGN) (human, UniProt Q9NNX6 1-404).
T4 construct: whole, on cells
T4 sequence (looked up): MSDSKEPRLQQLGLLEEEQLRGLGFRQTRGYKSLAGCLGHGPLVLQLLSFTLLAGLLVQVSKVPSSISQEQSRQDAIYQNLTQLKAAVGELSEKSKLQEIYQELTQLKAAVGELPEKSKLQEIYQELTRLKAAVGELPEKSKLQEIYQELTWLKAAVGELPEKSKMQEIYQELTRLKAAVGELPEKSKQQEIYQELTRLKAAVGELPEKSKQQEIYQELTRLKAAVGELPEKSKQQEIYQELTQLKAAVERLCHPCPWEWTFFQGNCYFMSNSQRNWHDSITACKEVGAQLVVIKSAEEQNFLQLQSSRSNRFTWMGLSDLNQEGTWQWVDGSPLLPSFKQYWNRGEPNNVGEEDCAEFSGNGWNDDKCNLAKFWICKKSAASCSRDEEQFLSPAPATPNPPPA
Description: flow cytometry, K562/DC-SIGN cells. In general terms: In flow cytometry, cells or beads pass a laser one at a time.

B1: IgG1k clone A10 (Fab, V domains shown)
VH: EVQLQQSGPELEKPGASVKISCKASGYSFTGYNMNWVKQSNGKSLEWIGNIDPYYGDITYNQKFKGKATLTVDKSSSTAYMQLKSLTSEDSAVYYCARTATALYTMDYWGQGTSVTVSS
VL: EIVLTQSPAIMSASLGERVTMTCTASSSVSSSYLHWYQQKPGSSPKLWIYSTSNLASGVPARFSGSGSGTSYSLTISSMEAEDAATYYCHQYHRSPQTFGGGTKLEIK
notes: phage-Fab screening
Take B1: the OD405 in assay [1] came to 2.9 OD405; in assay [2], 0.1 OD405. Besides, the “Geo. Mean Fluorescence” value in assay [3] came to 21.3.

B2: IgG1k clone C7 (phage-Fab screening) (Fab, V domains shown)
VH: EVQLQQSGPELEKPGASVKISCKASGYSFTGYNMNWVKQSSGKSLEWIGNFDPYYGVITYNQKFKGKATLTVDKSSSTAYMQLKSLTSEDSAVYYCARTATALYTMDYWGQGTSVTVSS
VL: EIVLTQSPAIMSASPGEKVTMTCRASSSVSSSYLHWYQQKSGASPKLWIYSTSNLASGVPARFSGSGSGTSYSLTISSVEAEDAATYYCQQYSGYPLTFGSGTKLEIK
On to B2, for which the values for the OD405 in assay [1] and in assay [2] were 3.5 OD405 and 0.1 OD405, respectively. Moreover, the “Geo. Mean Fluorescence” value in assay [3] came to 101.

B3: IgG1k clone B7 (Fab, V domains shown)
VH: EVQLQQSGPELEKPGASVKISCKASGYSFTGYNMNWVKQSSGKSLEWIGNFDPYYGVITYNQKFKGKATLTVDKSSSTAYMQLKSLTSEDSAVYYCARTATALYTMDYWGQGTSVTVSS
VL: EIVLTQSPAIMSASPGEKVTMTCRASSSVSSSYLHWYQQKSGASPKLWIYSTSNLASGVPARFSGSGSGTSYSLTISSVEAEDAATYYCQQYSGYPLTFGSGTKLEIK
notes: phage-Fab screening
On to B3, for which the OD405 in assay [1] came out at 2.7 OD405; in assay [2], 0.1 OD405. In addition, the “Geo. Mean Fluorescence” value in assay [3] was 90.9.

B4: L-SIGN Fab clone C7 (soluble, purified) (Fab, V domains shown)
VH: EVQLQQSGPELEKPGASVKISCKASGYSFTGYNMNWVKQSSGKSLEWIGNFDPYYGVITYNQKFKGKATLTVDKSSSTAYMQLKSLTSEDSAVYYCARTATALYTMDYWGQGTSVTVSS
VL: EIVLTQSPAIMSASPGEKVTMTCRASSSVSSSYLHWYQQKSGASPKLWIYSTSNLASGVPARFSGSGSGTSYSLTISSVEAEDAATYYCQQYSGYPLTFGSGTKLEIK
For the molecule B4, the binding result in assay [4] is listed as “no binding (tested: 20 ug/ml)”.

B5: IgG1k clone D8 (Fab, V domains shown)
VH: EVQLQQSGPELEKPGASVKISCKASGYSFTGYNMNWVKQSNGKSLEWIGNIDPYYGGSSYNQKFKGKATLTVDKSSSTAYMQLKSLTSEDSAVYYCARTATALYTMDYWGQGTSVTVSS
VL: EIVLTQSPAIMSASPGEKVTMTCRASSSVSSSYLHWYQQKSGASPKLWIYSTSNLASGVPARFSGSGSGTSYSLTISSVEAEDAATYYCQQYSGYPGTFGGGTKLEIK
notes: phage-Fab screening
Take B5: the OD405 in assay [1] is 2.1 OD405; in assay [2], 0.1 OD405. Moreover, in assay [3], the “Geo. Mean Fluorescence” value was 17.3.
